Experimental data: PMC12207360, “Hyperpolarization Modulation of the T‐Type hCav3.2 Channel by Human Synenkephalin [1–53], a Shrew Neurotoxin Analogue without Paralytic Effects” (Angewandte Chemie (International Ed. in English), 2025)
Where no end group is shown, it is not given here.

Format: physicochemical
Conditions: cysteine/cystine redox condition, 20% EtOH / 0.1 M aq. NH4OAc, pH 8.5, 37 °C; misfolded products predominantly converted to 2
Description: We first examined the preparation of hSYN from the linear precursor peptide 1 (Scheme 1a). Oxidation of 1 in air or with DMSO gave only misfolded analogues with two (2SS) and/or three (3SS) disulfide bonds (Figure S1a,b). Meanwhile, a redox condition using cysteine / cystine in EtOH / aq. NH4OAc^[ [51] ^] smoothly promoted the formation of three disulfide bonds to afford hSYN (2) in 65% yield almost as a single isomer, along with trace amounts of misfolded 3SS analogue. […]
SH 前述の 22 の混合物に、前述のバッファーSHB (290 µL; 第四章第一節第四項) に溶解したSH 21SH
N-terminal segment(7.2 mg, 2.1 µmol) と TCEP-HCl (0.32 mg, 1.1 µmol) C-terminal segmentを加えた。6 M 水酸化ナトリウム水溶液1 で反応溶液を pH 7.0 に調整した後、室温で 22 時間攪拌した。得られた混合物を ODS カ
ラムクロマトグラフィー [COSMOSIL 75 C18 OPN (φ 8 x 8 mm), MeCN / H2O (0.1% TFA) = 0:1 Linear peptide 1. […]
rate 1.0 mL/min, UV 215 nm (A; 0.1% aq. TFA, B; 0.08% TFA/MeCN) ]. MS (MALDI-TO F ) m/z 3001.0 (calculated for […]
2: tR 12.2 min [Develosil® ODS HG-5 (5 µm, f 4.6 mm × 250 mm), temp. […] 40 °C, 25% for 10 min and 25–45% linear gradient for 20 min, flow rate […], UV215 nm (A; 0.1% aq. TFA, B; 0.08% TFA/MeCN), see Figure S7]; MS (MALDI-TO F ) m/z 2998.0 (calculated […]

## human synenkephalin [1–53] (ECSQDCATCSYRLVRPADINFLACVMECEGKLPSLKIWETCKELLQLSKPELP; disulfide (positions not given here); also: Type II disulfides, places not given here; UniProt P01210 25-77, looked up, fragment) [compound 2, human synenkephalin N-terminal part [1–53], three disulfide bonds Cys(I)–Cys(V), Cys(II)–Cys(IV), Cys(III)–Cys(VI)]
  thermodynamic stability: most thermodynamically stable
